Measured values published in US20150258192A1, “COMPOSITIONS AND METHODS FOR PREVENTING OR TREATING CHRONIC LUNG ALLOGRAFT DYSFUNCTION (CLAD) AND IDIOPATHIC PULMONARY FIBROSIS (IPF)” (priority 2014, published 2015).
No end group written: not given here.

Tests used:
Assay in all cases: Kinase Profiling Assay
Assay type in all cases: biochemical
Conditions in all cases: peptide 100 μM
DDR2(h) = biological target: T1, DDR2(h) (Homo sapiens, UniProt Q16832)
T1 sequence (Q16832 22-855): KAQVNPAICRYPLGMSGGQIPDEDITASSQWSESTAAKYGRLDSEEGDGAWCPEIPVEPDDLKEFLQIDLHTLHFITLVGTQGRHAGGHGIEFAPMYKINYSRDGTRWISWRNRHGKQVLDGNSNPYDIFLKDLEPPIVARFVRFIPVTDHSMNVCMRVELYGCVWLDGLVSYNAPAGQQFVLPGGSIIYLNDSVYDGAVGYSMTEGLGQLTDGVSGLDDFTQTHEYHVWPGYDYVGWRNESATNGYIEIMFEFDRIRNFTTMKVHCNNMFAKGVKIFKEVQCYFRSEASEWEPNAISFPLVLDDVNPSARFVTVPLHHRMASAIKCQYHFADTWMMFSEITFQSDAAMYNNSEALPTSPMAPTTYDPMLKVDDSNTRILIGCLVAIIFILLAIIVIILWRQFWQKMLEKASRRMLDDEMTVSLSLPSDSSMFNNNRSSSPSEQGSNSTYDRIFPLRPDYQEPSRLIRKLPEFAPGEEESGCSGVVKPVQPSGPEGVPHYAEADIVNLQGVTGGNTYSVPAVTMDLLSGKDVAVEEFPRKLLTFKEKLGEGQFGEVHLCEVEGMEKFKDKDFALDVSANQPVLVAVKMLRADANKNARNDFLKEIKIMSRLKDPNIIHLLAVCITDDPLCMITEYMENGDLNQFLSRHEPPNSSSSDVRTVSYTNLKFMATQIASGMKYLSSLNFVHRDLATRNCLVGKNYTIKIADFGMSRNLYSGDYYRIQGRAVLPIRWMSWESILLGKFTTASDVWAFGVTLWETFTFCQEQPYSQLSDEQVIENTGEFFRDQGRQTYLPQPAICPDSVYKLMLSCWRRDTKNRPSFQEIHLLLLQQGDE
In short: (§1)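 Scintillation counting quantifies radiolabeled, positively charged substrate retained on a negatively charged filter after kinase reaction with labeled ATP; inhibitor peptide present.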

CHK1(h) = biological target: T2, CHK1(h) (Homo sapiens, UniProt O14757)
T2 sequence (O14757 1-476): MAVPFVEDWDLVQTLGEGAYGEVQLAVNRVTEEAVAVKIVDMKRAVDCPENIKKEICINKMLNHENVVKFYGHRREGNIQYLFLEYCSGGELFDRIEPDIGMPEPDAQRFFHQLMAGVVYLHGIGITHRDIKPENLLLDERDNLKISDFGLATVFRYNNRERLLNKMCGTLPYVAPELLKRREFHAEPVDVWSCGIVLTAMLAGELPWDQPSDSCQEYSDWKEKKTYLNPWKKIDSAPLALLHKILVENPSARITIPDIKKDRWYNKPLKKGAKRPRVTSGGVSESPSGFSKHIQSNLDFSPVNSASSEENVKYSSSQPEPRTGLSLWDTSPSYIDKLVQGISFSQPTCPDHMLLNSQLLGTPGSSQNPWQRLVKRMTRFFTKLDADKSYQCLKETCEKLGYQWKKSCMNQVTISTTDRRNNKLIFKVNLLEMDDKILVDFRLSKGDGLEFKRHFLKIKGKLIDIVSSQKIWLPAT
In short: as §1

GSK3β(h) = biological target: T3, GSK3β(h) (Homo sapiens, UniProt P49841)
T3 construct: purchased Millipore
T3 sequence (P49841 whole entry): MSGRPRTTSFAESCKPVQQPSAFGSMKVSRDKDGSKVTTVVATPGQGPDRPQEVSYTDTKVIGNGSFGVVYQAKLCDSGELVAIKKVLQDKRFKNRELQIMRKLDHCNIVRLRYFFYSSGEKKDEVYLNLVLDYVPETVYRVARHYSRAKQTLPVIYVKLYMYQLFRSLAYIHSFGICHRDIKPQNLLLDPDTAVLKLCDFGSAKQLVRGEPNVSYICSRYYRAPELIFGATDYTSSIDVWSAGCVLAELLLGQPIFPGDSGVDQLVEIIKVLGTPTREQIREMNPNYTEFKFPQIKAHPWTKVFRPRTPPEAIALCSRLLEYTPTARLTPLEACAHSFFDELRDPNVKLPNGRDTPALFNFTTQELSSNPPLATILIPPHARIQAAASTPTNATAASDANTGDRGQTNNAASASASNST
In short: as §1

mTOR(h) = biological target: T4, mTOR(h) (Homo sapiens, UniProt P42345)
T4 construct: purchased Millipore
In short: as §1

CaMKIV(h) = biological target: T5, CaMKIV(h) (Homo sapiens, UniProt Q16566)
T5 sequence (Q16566 1-473): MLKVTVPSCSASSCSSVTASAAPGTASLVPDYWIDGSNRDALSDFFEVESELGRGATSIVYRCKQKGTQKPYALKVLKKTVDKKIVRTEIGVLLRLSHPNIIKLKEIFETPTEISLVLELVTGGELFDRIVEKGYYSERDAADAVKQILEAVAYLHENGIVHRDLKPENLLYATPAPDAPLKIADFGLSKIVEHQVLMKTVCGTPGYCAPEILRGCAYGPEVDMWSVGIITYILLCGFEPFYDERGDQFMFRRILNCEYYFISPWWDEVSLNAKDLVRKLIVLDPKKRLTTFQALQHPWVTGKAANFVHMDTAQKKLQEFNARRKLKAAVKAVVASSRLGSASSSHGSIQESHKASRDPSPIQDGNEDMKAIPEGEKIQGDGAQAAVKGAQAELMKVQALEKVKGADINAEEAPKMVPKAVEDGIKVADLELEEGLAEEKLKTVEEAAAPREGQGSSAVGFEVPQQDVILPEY
In short: as §1

EphA4(h) = EphA4(h) (Homo sapiens, UniProt P54764)
Chain of EphA4(h) (P54764 20-986): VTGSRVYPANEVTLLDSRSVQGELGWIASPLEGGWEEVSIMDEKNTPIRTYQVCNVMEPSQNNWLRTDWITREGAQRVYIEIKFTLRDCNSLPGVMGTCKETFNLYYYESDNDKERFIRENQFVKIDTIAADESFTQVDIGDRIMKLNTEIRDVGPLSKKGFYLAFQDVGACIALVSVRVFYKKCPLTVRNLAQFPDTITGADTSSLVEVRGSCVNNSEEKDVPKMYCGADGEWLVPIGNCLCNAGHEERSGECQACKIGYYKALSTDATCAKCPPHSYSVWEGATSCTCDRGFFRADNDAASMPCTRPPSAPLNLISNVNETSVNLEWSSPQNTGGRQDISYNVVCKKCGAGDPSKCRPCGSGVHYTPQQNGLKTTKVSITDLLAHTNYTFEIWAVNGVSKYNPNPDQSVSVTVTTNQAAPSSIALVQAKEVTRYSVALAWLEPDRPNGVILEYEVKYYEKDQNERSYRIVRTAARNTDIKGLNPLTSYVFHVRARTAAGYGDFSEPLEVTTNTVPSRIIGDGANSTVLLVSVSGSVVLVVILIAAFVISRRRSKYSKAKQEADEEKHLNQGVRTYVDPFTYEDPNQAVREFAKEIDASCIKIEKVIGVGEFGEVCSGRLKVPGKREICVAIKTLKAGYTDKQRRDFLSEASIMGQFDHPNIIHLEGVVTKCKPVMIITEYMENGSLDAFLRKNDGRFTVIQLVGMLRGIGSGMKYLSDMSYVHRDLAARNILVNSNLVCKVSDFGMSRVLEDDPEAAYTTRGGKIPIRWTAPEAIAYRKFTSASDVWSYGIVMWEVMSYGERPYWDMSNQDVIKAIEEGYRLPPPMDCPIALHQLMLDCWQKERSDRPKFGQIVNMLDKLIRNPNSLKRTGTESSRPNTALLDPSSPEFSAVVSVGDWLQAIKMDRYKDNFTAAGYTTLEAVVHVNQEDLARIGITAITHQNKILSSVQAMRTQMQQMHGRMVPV
In short: as §1

Row | Sequence | % activity (DDR2(h)) | % activity (CHK1(h)) | % activity (GSK3β(h)) | % activity (mTOR(h)) | % activity (CaMKIV(h)) | % activity (EphA4(h))
1 | HRRIKAWLKKIKALARQLGVAA (Mammal) [MMI-0500] | 79% | 65% | 238% | 135% | -1% | 48%
2 | YARAAARQARAKALNRQLGVA (Mammal) [MMI-0200] | – | – | 132% | 110% | 71% | 127%
3 | YARAAARQARAKALARQLGVAA [MMI-0100] | – | – | – | – | – | 110%
4 | FAKLAARLYRKALARQLGVAA [MMI-0300] | 94% | 91% | 205% | 91% | 17% | 88%
5 | KAFAKLAARLYRKALARQLGVAA [MMI-0400] | 95% | 87% | 202% | 93% | 18% | 65%
